From patent US20200239541A1 (XYPHOS BIOSCIENCES, published 2020) come the findings set out here.

For assay [1], the target named is T1, His-avitag natural NKG2D ectodomain, biotinylated (human).
T1 construct: also called natural form of the ectodomain of NKG2D
T1 chain: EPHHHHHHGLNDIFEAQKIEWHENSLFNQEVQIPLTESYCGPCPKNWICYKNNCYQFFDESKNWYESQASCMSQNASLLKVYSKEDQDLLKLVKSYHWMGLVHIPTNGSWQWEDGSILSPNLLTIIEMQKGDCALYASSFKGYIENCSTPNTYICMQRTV
The assay can be described thus: BLI (Octet), biotinylated natural NKG2D ectodomain coated, 100 nM fusion. The procedure: In order to characterize and compare the kinetic binding parameters of the natural and 8 variant α1-α2 domains to natural NKG2D, we measured their binding to surface coated biotinylated natural NKG2D ectodomain using biolayer interferometry (Octet) at 100 nM of each of the α1-α2-α3-Fv fusion proteins.

Assay [2] deals with T2, Fc-eNKG2D9 (Y152V/Y199F) (human).
T2 construct: also called eNKG2D9 V|F
The assay can be described thus: ELISA, Fc-eNKG2D coated, MicAbody titrated from 300 nM. The procedure:
(§1) The binding affinities of α1-α2 variants to the extracellular domains of natural (wild-type) NKG2D and non-natural eNKG2D proteins were analyzed using a plate-based ELISA method. Each of the SEC fractionated natural Fc-NKG2D and non-natural Fc-eNKG2D fusions were coated overnight at 4° C. onto separate wells of Nunc Maxisorp 96 well plates (Thermo Fisher Scientific, Waltham, Mass.) using a coating concentration of 1 μg/mL in phosphate-buffered saline (PBS). The plates were washed three times in PBS/0.05% Tween-20 (PBS-T) at 20-22° C., and blocked with 0.5% bovine serum albumin in PBS (PBS-B) for 2 hours at 20-22° C. MicAbodies were titrated against the plate-bound natural or non-natural Fc-NKG2D fusions for 60 minutes at 20-22° C. in PBS/0.5% bovine serum albumin (BSA)/0.05% Tween-20 (PBS-BT), washed 3 times with PBS-T at 20-22° C., and the bound bispecific proteins detected using an HRP-conjugated anti-human kappa in PBS-BT (Abcam, Cambridge Mass.) and developed with 1-Step™ Ultra TMB ELISA Substrate Solution (Thermo Fisher Scientific, Waltham, Mass.).

For assay [3], the target named is T3, Fc-eNKG2D7 (Y152S/Y199F) (human).
T3 construct: also called eNKG2D7 S|F
Described as above. The procedure:
as §1

Assay [4] has as its target T4, Fc-eNKG2D8 (Y152T/Y199F) (human).
T4 construct: also called eNKG2D8 T|F
Described as above. How it is done:
as §1

The target of assay [5] is T5, Fc-eNKG2D12 (Y152D/Y199D) (human).
T5 construct: also called eNKG2D12 D|D
Described as above. How it is done:
as §1

In assay [6] the target is T6, Fc-eNKG2D6 (Y152L/Y199F) (human).
T6 construct: also called eNKG2D6 L|F
Described as above. The procedure: as §1

Assay [7] deals with T7, Fc-eNKG2D5 (Y152A/Y199F) (human).
T7 construct: also called eNKG2D5 A|F; Fc-NKG2D.AF
The description is as above. The procedure:
as §1

The target in assay [8] is T8, Fc-eNKG2D13 (Y152E/Y199E) (human).
T8 construct: also called eNKG2D13 E|E
Described as above. How it is done:
as §1

The target of assay [9] is T9, Fc-eNKG2D2 (Y152S) (human).
T9 construct: also called eNKG2D2 S|Y; not shown: human IgG1 Fc (without Fab domains)
The assay can be described thus: ELISA, Fc-NKG2D coated, MicAbody titrated from 300 nM. How it is done: as §1

Assay [10] has as its target T10, Fc-eNKG2D3 (Y152T) (human).
T10 construct: also called eNKG2D3 T|Y
The assay is described as above. How it is done:
as §1

Assay [11] has as its target T11, Fc-NKG2D.wt (human).
T11 construct: also called NKG2D.wt Y|Y; natural Fc-NKG2D
The assay is described as above. How it is done: as §1

Assay [12] concerns the target T12, Fc-eNKG2D14 (Y152L) (human).
T12 construct: also called eNKG2D14 L|Y
Described as above. The procedure:
as §1

For assay [13], the target named is T13, Fc-eNKG2D4 (Y152V) (human).
T13 construct: also called eNKG2D4 V|Y
The assay is described as above. How it is done: as §1

In assay [14] the target is T11, Fc-NKG2D.wt. As to the kind of experiment: ELISA (called Kd in the text). The procedure: as §1
Assay [15] deals with T11, Fc-NKG2D.wt. The assay can be described thus: ELISA of rituximab-MicAbodies.
The target of assay [16] is T7, Fc-eNKG2D5 (Y152A/Y199F). The assay can be described thus: ELISA of rituximab-MicAbodies.
Assay [17] has as its target T14, Fc-NKG2D.Y152A (human).
T14 construct: also called eNKG2D A|Y; Fc-NKG2D.YA
As to the kind of experiment: ELISA and Octet, bispecific antibody fused format.

Assay [18] has as its target T15, WT α1-α2 domain (soluble wild-type MICA, titrated) (UniProt Q29983 24-204).
T15 construct: domain: α1-α2; also called WT MICA; WT NKG2DL
T15 sequence (looked up): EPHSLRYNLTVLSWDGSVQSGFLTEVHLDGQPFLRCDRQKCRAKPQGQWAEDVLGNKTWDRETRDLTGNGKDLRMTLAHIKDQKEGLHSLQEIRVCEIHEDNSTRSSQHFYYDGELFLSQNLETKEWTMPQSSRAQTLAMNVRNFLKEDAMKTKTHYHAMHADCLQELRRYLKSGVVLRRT
As to the kind of experiment: BLI (Octet), Kd = kOFF/kON.

Assay [19] addresses T15, WT α1-α2 domain (soluble wild-type …). As to the kind of experiment: BLI (Octet), biotinylated human NKG2D coated, 100 nM analyte.
For assay [20], the target named is T14, Fc-NKG2D.Y152A. The assay can be described thus: ELISA of rituximab-MicAbodies.

Residue numbers refer to the chain shown, from its start.

T7 sequence (chain, as listed by the source Y152A Y199F Y152A Y199F limits assumed): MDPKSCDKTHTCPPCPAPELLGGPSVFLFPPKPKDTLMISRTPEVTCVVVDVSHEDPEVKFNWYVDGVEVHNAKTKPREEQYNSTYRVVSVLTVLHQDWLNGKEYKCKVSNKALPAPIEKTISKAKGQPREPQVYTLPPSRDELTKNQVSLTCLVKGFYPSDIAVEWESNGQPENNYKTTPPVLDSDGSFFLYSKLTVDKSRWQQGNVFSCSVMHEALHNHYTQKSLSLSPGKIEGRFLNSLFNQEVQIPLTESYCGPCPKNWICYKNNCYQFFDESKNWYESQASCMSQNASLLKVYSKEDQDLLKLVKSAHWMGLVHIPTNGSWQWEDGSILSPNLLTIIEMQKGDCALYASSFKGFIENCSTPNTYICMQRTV
T5 sequence (chain, as listed by the source Y152D Y199D Y152D Y199D limits assumed): as the sequence (chain, as listed by the source Y152A Y199F Y152A Y199F limits assumed) above, with A312D, F359D counted along it
T4 sequence (chain, as listed by the source Y152T Y199F Y152T Y199F limits assumed): as the sequence (chain, as listed by the source Y152A Y199F Y152A Y199F limits assumed) above, with A312T counted along it
T2 sequence (chain, as listed by the source Y152V Y199F Y152V Y199F limits assumed): as the sequence (chain, as listed by the source Y152A Y199F Y152A Y199F limits assumed) above, with A312V counted along it
T3 sequence (chain, as listed by the source Y152S Y199F Y152S Y199F limits assumed): as the sequence (chain, as listed by the source Y152A Y199F Y152A Y199F limits assumed) above, with A312S counted along it
T8 sequence (chain, as listed by the source Y152E Y199E Y152E Y199E limits assumed): as the sequence (chain, as listed by the source Y152A Y199F Y152A Y199F limits assumed) above, with A312E, F359E counted along it
T6 sequence (chain, as listed by the source Y152L Y199F Y152L Y199F limits assumed): as the sequence (chain, as listed by the source Y152A Y199F Y152A Y199F limits assumed) above, with A312L counted along it

B1: DSM25 α1-α2-α3-Fv fusion (SEQ ID NO 43) (ligand)
chain: EPHSLRYNLTVLSWDGSVQSGFLTEVHLDGQPFLRCDRQKCRAKPQGQWAEDVLGNKTWDRETRDLTGWGKDLRMTLAHIKDQKEGLHSLQEIRVCEIHEDNSTRSSQHFYYDGELFLSQNLETLEWTMPQSSRAQTLAMNVRNFLKEDAMETDTHYHAMRADCLSELRRYLKSGVVLRRTVPPMVQVTRSEASGGSGDRVTITCRASQDVSTAVAWYQQKPGKAPKLLIYSASFLYSGVPSRFSGSGSGTDFTLTISSLQPEDFATYYCQQSYTTPPTFGQGTKVEIKGGSSRSSSSGGGGSGGGGEVQLVESGGGLVQPGGSLRLSCAASGFTFTSTGISWVRQAPGKGLEWVGRIYPTNGSTNYADSVKGRFTISADTSKNTAYLQMNSLRAEDTAVYYCARTYGIYDLYVDYTEYVMDYWGQGTLVTVSSGGSSRSSSSGGGGSGGGGDIQMTQSPSSLSASGGSGQITVTCRASGFYPWNITLSWRQDGVSLSHDTQQWGDVLPDGQGTYQTWVATRISQGEEQRFTCYMEHSGQHSTHPVPSGKGSHHHHHH
For the molecule B1, the binding result in [1] is “binds”.

B2: ULBP2.wt rituximab-MicAbody (bispecific antibody, human IgG1, kappa)
heavy: not shown
light: QIVLSQSPAILSASPGEKVTMTCRASSSVSYIHWFQQKPGSSPKPWIYATSNLASGVPVRFSGSGSGTSYSLTISRVEAEDAATYYCQQWTSNPPTFGGGTKLEIKRTVAAPSVFIFPPSDEQLKSGTASVVCLLNNFYPREAKVQWKVDNALQSGNSQESVTEQDSKDSTYSLSSTLTLSKADYEKHKVYACEVTHQGLSSPVTKSFNRGECAPTSSSGGGGSEPHSLSYDITVIPKFRPGPRWCAVQGQVDEKTFLHYDCGNKTVTPVSPLGKKLNVTTAWKAQNPVLREVVDILTEQLRDIQLENYTPKEPLTLQARMSCEQKAEGHSSGSWQFSFDGQIFLLFDSEKRMWTTVHPGARKMKEKWENDKVVAMSFHYFSMGDCIGWLEDFLMGMDSTLEPS
notes: also called ULBP2 MicAbody
Take B2: the binding result in assay [2], in [3], in assay [4], in assay [5], in assay [6] and in assay [7] was “no binding (tested: 300 nM)” in each case. In addition, the binding result in assay [8] is reported as “no binding (tested: 300 nM)”. Moreover, the EC50 in assay [9] worked out at 34.8 nM; in assay [10], 31.1 nM; in assay [11], 1.41 nM; in [12], 87.6 nM; in [13] it was 35.8 nM; in assay [14], 1.4 nM.

B3: rituximab-ULBP2.S3 MicAbody (bispecific antibody, human IgG1, kappa)
heavy: not shown
light: B2 light with R302W, M376T, S377K, F378L, H379Y, Y380L, F381W
notes: also called ULBP2.S3 as a MicAbody
For B3, the figures for the binding result in [15], in assay [16] and in assay [17] were “no binding”, “no binding” and “binds”, respectively.

B4: biotinylated human NKG2D (Example 1) (receptor, UniProt P26718 78-216, looked up)
chain: FLNSLFNQEVQIPLTESYCGPCPKNWICYKNNCYQFFDESKNWYESQASCMSQNASLLKVYSKEDQDLLKLVKSYHWMGLVHIPTNGSWQWEDGSILSPNLLTIIEMQKGDCALYASSFKGYIENCSTPNTYICMQRTV
notes: also called recombinant biotinylated NKG2D
B4 yielded a Kd in assay [18] of 13.8 nM. In assay [19], the koff is 0.0018 s⁻¹ and the kon stood at 130000 M⁻¹ s⁻¹.

B5: rituximab-ULBP2.R MicAbody (bispecific antibody, human IgG1, kappa)
heavy: not shown
light: QIVLSQSPAILSASPGEKVTMTCRASSSVSYIHWFQQKPGSSPKPWIYATSNLASGVPVRFSGSGSGTSYSLTISRVEAEDAATYYCQQWTSNPPTFGGGTKLEIKTVAAPSVFIFPPSDEQLKSGTASVVCLLNNFYPREAKVQWKVDNALQSGNSQESVTEQDSKDSTYSLSSTLTLSKADYEKHKVYACEVTHQGLSSPVTKSFNRGECAPTSSSGGGGSEPHSLSYDITVIPKFRPGPRWCAVQGQVDEKTFLHYDCGNKTVTPVSPLGKKLNVTTAWKAQNPVLREVVDILTEQLWDIQLENYTPKEPLTLQARMSCEQKAEGHSSGSWQFSFDGQIFLLFDSEKRMWTTVHPGARKMKEKWENDKVVATLLWGWSMGDCIGWLEDFLMGMDSTLEPS
notes: also called rituximab-MicAbody with ULBP2 variant R
In the case of B5, the binding result in assay [20] is on record as “no binding”.
